How the values were obtained:
[1] = Hydrophobic interaction chromatography (HIC); format: physicochemical; settings: butyl HIC column, FIG. 4
Procedure: The samples are eluted using an inverted gradient from mobile phase A to 50 mM sodium phosphate, pH 7.0/isopropanol (80:20 v/v) (mobile phase B). The elution is followed by recording the A280 nm as a function of time, the data is then exported and analyzed using the Empower software.
(§1) Developability characteristics for various mutants were performed as in Bailly Et al., Predicting Antibody Developability Profiles Through Early Stage Discovery Screening, MABS 12 (1): e1743053 (2020) (doi: 10.1080/19420862.2020.17430530), which is incorporated herein by reference in its entirety. Various methods used may be found herein under General Methods.

UP-SEC aggregation = format: physicochemical
Procedure: as §1

[2] = Drug antibody ratio (DAR) of ADC by MS / HIC; format: physicochemical
Procedure: A 100 mM solution of dehydroascorbic acid (8.0 equiv.) in water was added slowly and the solution was mixed at room temperature for 4-10 hours or until completion (monitored by reverse phase liquid chromatography (RP-LC) and sodium dodecyl sulfate capillary electrophoresis (CE-SDS)). A 20 mg/mL solution of linker-payload (3.0 equiv.) in DMSO was added and the conjugation was incubated at room temperature for 2 hours (monitored by Quadrupole time-of-flight (QTOF) mass spectrometry (MS)) before addition of L-cysteine (5 equiv., 50 mM in water) to quench residual linker-payload. […] The ADC was brought to the final desired concentration using Sartorius Vivacell 70 Centrifugal Concentrators and Amicon® Ultra Centrifugal Filters.
The control antibody profile is the unconjugated antibody.

[3] = Rat PK of αTROP2 MMAE ADC (tAb, cAb, released MMAE); format: in vivo, Wistar Hannover Rats; settings: 5 mg/kg IV, up to 14 days, LLOQ […]
Procedure: Plasma concentrations of payload conjugated anti-TROP2 antibody (cAb), total antibody (tAb), and released payload were measured up to 14 days post dose.

[4] = system: BxPC3 pancreatic cancer cells; test: In vivo anti-tumor efficacy in BxPC3 mouse model; set-up: species or system BALB/c nude mice; settings: dose response, IV single dose, FIG. 14
Procedure: Experimental protocol: 7-8 week old female BALB/c nude mice were purchased from Gempharmatech Co., Ltd. ([…]). […] Mouse body weights and tumors were measured twice weekly, and tumor volumes calculated using the formula V=0.5 [a*b2]; where a and b are the long and short diameters of the tumor, respectively. 110 mice were assigned to 11 groups of 10 mice each using a computer-generated randomization procedure to minimize tumor volume variance across groups. Treatments were started when tumors reached an average size of 200 mm^3. PBS and the MMAE conjugates were dosed intravenously (IV) at 2 mg/kg according to Table 25.
Mouse body weights and tumors were measured twice weekly, and tumor volumes calculated using the formula V=0.5 [a*b2]; where a and b are the long and short diameters of the tumor, respectively. 70 mice were assigned to 7 groups of 10 mice each using a computer-generated randomization procedure to minimize tumor volume variance across groups. Treatments were started when tumors reached an average size of 200 mm^3. PBS, a control mAb, and bioconjugate were dosed intravenously (IV) according to Table 26.

Non-reducing CE-SDS = format: physicochemical
Procedure: as §1

B1: αTROP2 (HC:BSM-YTE-S375C) (LC:BSM-Y53D): HC SEQ ID NO: 20 or 90; LC SEQ ID NO: 22 (antibody)
heavy: QVQLLQSGSELKKPGASVKVSCKASGYTFTNYGMNWVRQAPGQGLKWMGWINTYTGEPTYTDDFKGRFSFSLDTSVSQAYLQISSLKAEDTAVYYCARGGFGSSYWYFDVWGQGTLVTVSSASTKGPSVFPLAPSSKSTSGGTAALGCLVKDYFPEPVTVSWNSGALTSGVHTFPAVLQSSGLYSLSSVVTVPSSSLGTQTYICNVNHKPSNTKVDKKVEPKSCDKTHTCPPCPAPELLGGPSVFLFPPKPKDTLYITREPEVTCVVVDVSHEDPEVKFNWYVDGVEVHNAKTKPREEQYNSTYRVVSVLTVLHQDWLNGKEYKCKVSNKALPAPIEKTISKAKGQPREPQVYTLPPSRDELTKNQVSLTCLVKGFYPCDIAVEWESNGQPENNYKTTPPVLDSDGSFFLYSKLTVDKSRWQQGNVFSCSVMHEALHNHYTQKSLSLSPGK
light: DIQLTQSPSSLSASVGDRVTITCKASQDVSIAVAWYQQKPGKAPKLLIYSASDRYTGVPSRFSGSGSGTDFTLTISSLQPEDFATYYCQQHYITPLTFGPGTKVEIKRTVAAPSVFIFPPSDEQLKSGTASVVCLLNNFYPREAKVQWKVDNALQSGNSQESVTEQDSKDSTYSLSSTLTLSKADYEKHKVYACEVTHQGLSSPVTKSFNRGEC
modifications: YTE Fc mutations
HIC peak elution [1]: 24.14 fraction

B2: αTROP2 (HC: BSM-YTE-S375C-MMAE)(LC: BSM-Y53D) (conjugate)
heavy: B1 heavy
light: B1 light
% HMW (SEC) (UP-SEC aggregation; Table 22): 4.33% | % HMW (SEC) (UP-SEC aggregation; Table 23): 4.33% | DAR ([2]; Table 22): 1.7 | DAR ([2]; Table 23): 1.7

B3: ADC 1: αTROP2 (HC:BSM-YTE-S375C) (LC:BSM-Y53D) conjugated to MP-AA-PABC-MMAE (conjugate)
heavy: B1 heavy
light: B1 light
Purity by UP-SEC (UP-SEC aggregation): 96.4% | unconjugated MMAE in the plasma [3]: no detectable | tumor volume [4]: effective at reducing tumor volume | Purity by CE-SDS NR (Non-reducing CE-SDS): 94.7% | unconjugated antibody ([2]; by MS): unconjugated antibody (1.2%)
